Experiments:
Format in all cases: biochemical
[1] = HTP-analysis of yeast culture supernatants, no challenge (MUGal hydrolysis); details: activity of the variant/activity of Rd3BB (SEQ ID NO: 13), yeast supernatant
Method in brief: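 GLA variants were expressed in INVSc1 yeast grown in SD-Ura broth with glucose at 30° C., and culture supernatants were collected after 66-84 h. Supernatant was mixed with McIlvaine buffer pH 4.8 and MUGal (2 mM stock) in 50 mM citrate, 200 mM KCl, pH 4.6, incubated at 37° C. for 30-180 minutes, then quenched with sodium carbonate.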

[2] = HTP-analysis of supernatants pretreated with acid (MUGal hydrolysis); details: challenge at pH 3.3; activity of the variant/activity of Rd3BB (SEQ ID NO: 13); yeast supernatant
Method in brief: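 Supernatants from INVSc1 yeast secreting GLA variants were challenged at 37° C. for 1-3 h in McIlvaine buffer at pH 3.3-4.3. Residual activity was then measured on 4 mM MUGal substrate stock at pH 4.8 with citrate buffer pH 4.3, over 30-180 min at 37° C. Reactions were quenched with sodium carbonate and read by fluorescence (Ex 355/Em 448 nm).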

[3] = HTP-analysis of supernatants pretreated with base (MUGal hydrolysis); details: challenge at pH 9.7; activity of the variant/activity of Rd3BB (SEQ ID NO: 13); yeast supernatant
Method in brief: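 GLA variants were secreted by transformed INVSc1 yeast grown 66-84 h at 30° C. Supernatants were exposed to neutral-to-basic buffers (pH 7.0-9.7) at 37° C for 1-18 h, then assayed with MUGal in acidic citrate/McIlvaine buffer, with fluorescence read after quenching.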

| Molecule | Relative Activity of GLA Variants After No Challenge (NC) [1] | Relative Activity of GLA Variants After Challenge at pH 3.3 [2] | Relative Activity of GLA Variants After Challenge at pH 9.7 [3] |
| --- | --- | --- | --- |
| 616 (protein, Synthetic Polypeptide sequence of Variant No. 616 of mature Human GLA) LDNGLARTPTMGWLHWERFMCNLDCQEEPDSCISEKLFMEMAERMVTEGWKDAGYEYLCIDDCWMAPQRDSEGRLQADPQRFPHGIRQLANHVHSKGLKLGIYADVGNKTCAGFPGSFGYYDIDAQTFADWGVDLLKFDGCYCDSLENLADGYKHMSLALNRTGRPIVYSCEWPLYMWPFQKPNYTEIRQYCNHWRNFADIDDSWASIKSILDWTSRNQERIVDVAGPGGWNDPDMLVIGNFGLSWDQQVTQMALWAIWAAPLFMSNDLRAISPQAKALLQDKDVIAINQDPLGKQGYQLRKGDNFEVWERPLSGDAWAVAIINRQEIGGPRSYTIPVASLGKGVACNPACFITQLLPVKRQLGFYNWTSRLKSHINPTGTVLLQLENTQQMSLKDLL | + (+ = 1.5 to 5 relative activity over Rd3BB (SEQ ID NO: 13)) | + (+ = 1.5 to 5 relative activity over Rd3BB (SEQ ID NO: 13)) | ++ (++ = >5 to 10 relative activity over Rd3BB (SEQ ID NO: 13)) |
| 620 (protein, Synthetic Polypeptide sequence of Variant No. 620 of mature Human GLA) LDNGLARTPTMGWLHWERFMCNLDCQEEPDSCISEKLFMEMAERMVTEGWKDAGYEYLCIDDCWMAPQRDSEGRLQADPQRFPHGIRQLANHVHSKGLKLGIYADVGNKTCAGFPGSFGYYDIDAQTFADWGVDLLKFDGCYCDSLENLADGYKHMSLALNRTGRPIVYSCEWPLYMWPFQKPNYTEIRQYCNHWRNFADIDDSWASIKSILDWTSRNQERIVDVAGPGGWNDPDMLVIGNFGLSWDQQVTQMALWAIMAAPLFMSNDLRAISPQAKALLQDKDVIAINQDPLGKQGYQLRKGDNFEVWERPLSGDAWAVAIINRQEIGGPRSYTIPVASLGKGVACNPACFITQLLPVKRQLGFYNWTSRLKSHINPTGTVLLQLENTQQMSLKDLL | − (− = <1.5 relative activity to Rd3BB (SEQ ID NO: 13)) | + (+ = 1.5 to 5 relative activity over Rd3BB (SEQ ID NO: 13)) | ++ (++ = >5 to 10 relative activity over Rd3BB (SEQ ID NO: 13)) |
| 622 (protein, Synthetic Polypeptide sequence of Variant No. 622 of mature Human GLA) LDNGLARTPTMGWLHWERFMCNLDCQEEPDSCISEKLFMEMAERMVNEGWKDAGYEYLCIDDCWMAPQRDSEGRLQADPQRFPHGIRQLANHVHSKGLKLGIYADVGNKTCAGFPGSFGYYDIDAQTFADWGVDLLKFDGCYCDSLENLADGYKHMSLALNRTGRPIVYSCEWPLYMWPFQKPNYTEIRQYCNHWRNFADIDDSWASIKSILDWTSRNQERIVDVAGPGGWNDPDMLVIGNFGLSWDQQVTQMALWAIWAAPLFMSNDLRAISPQAKALLQDKDVIAINQDPLGKQGYQLRKGDNFEVWERPLSGDAWAVAIINRQEIGGPRSYTIPVASLGKGVACNPACFITQLLPVKRQLGFYNWTSRLKSHINPTGTVLLQLENTQQTSLKDLL | + (+ = 1.5 to 5 relative activity over Rd3BB (SEQ ID NO: 13)) | − (− = <1.5 relative activity to Rd3BB (SEQ ID NO: 13)) | ++ (++ = >5 to 10 relative activity over Rd3BB (SEQ ID NO: 13)) |
| 617 (protein, Synthetic Polypeptide sequence of Variant No. 617 of mature Human GLA) LDNGLARTPTMGWLHWERFMCNLDCQEEPDSCISEKLFMEMAERMVSEGWKDAGYEYLCIDDCWMAPQRDSEGRLQADPQRFPHGIRQLANHVHSKGLKLGIYADVGNKTCAGFPGSFGYYDIDAQTFADWGVDLVKFDGCYCDSLENLADGYKHMSLALNRTGRPIVYSCEWPLYMWPFQKPNYTEIRQYCNHWRNFADIDDSWASIKSILDWTSRNQERIVDVAGPGGWNDPDMLVIGNFGLSWDQQVTQMALWAIAAAPLFMSNDLRHISPQAKALLQDKDVIAINQDPLGKQGYQLRKGDNFEVWERPLSGDAWAVAIINRQEIGGPRSYTIPVASLGKGVACNPACFITQLLPVKRQLGFYNWTSRLKSHINPTGTVLLQLENTQQMSLKDLL | + (+ = 1.5 to 5 relative activity over Rd3BB (SEQ ID NO: 13)) | ++ (++ = >5 to 10 relative activity over Rd3BB (SEQ ID NO: 13)) | ++ (++ = >5 to 10 relative activity over Rd3BB (SEQ ID NO: 13)) |
| 621 (protein, Synthetic Polypeptide sequence of Variant No. 621 of mature Human GLA) LDNGLARTPTMGWLHWERFMCNLDCQEEPDSCISEKLFMEMAERMVTEGWKDAGYEYLCIDDCWMAPQRDSEGRLQADPQRFPHGIRQLANHVHSKGLKLGIYADVGNKTCAGFPGSFGYYDIDAQTFADWGVDLLKFDGCYCDSLENLADGYKHMSLALNRTGRPIVYSCEWPLYMWPFQKPNYTEIRQYCNHWRNFADIDDSWASIKSILDWTSRNQERIVDVAGPGGWNDPDMLVIGNFGLSWDQQVTQMALWAIEAAPLFMSNDLRAISPQAKALLQDKDVIAINQDPLGKQGYQLRKGDNFEVWERPLSGDAWAVAIINRQEIGGPRSYTIPVASLGKGVACNPACFITQLLPVKRQLGFYNWTSRLKSHINPTGTVLLQLENTQQMSLKDLL | + (+ = 1.5 to 5 relative activity over Rd3BB (SEQ ID NO: 13)) | ++ (++ = >5 to 10 relative activity over Rd3BB (SEQ ID NO: 13)) | − (− = <1.5 relative activity to Rd3BB (SEQ ID NO: 13)) |
| 618 (protein, Synthetic Polypeptide sequence of Variant No. 618 of mature Human GLA) LDNGLARTPTMGWLHWERFMCNLDCQEEPDSCISEKLFMEMAERMVTEGWKDAGYEYLCIDDCWMAPQRDSEGRLQADPQRFPHGIRQLANHVHSKGLKLGIYADVGNKTCAGFPGSFGYYDIDAQTFADWGVDLLKFDGCYCDSLENLADGYKHMSLALNRTGRPIVYSCEWPLYMWPFQKPNYTEIRQYCNHWRNFADIDDSWASIKSILDWTSRNQERIVDVAGPGGWNDPDMLVIGNFGLSWDQQVTQMALWAIMAAPLFMSNDLRAISPQAKALLQDKDVIAINQDPLGKQGYQLRKGDNFEVWERPLSGDAWAVAIINRQEIGGPRSYTIPVASLGKGVACNPACFITQLLPVKRQLGFYNWTSRLKSHINPTGTVLLQLENTMQMSLKDLL | + (+ = 1.5 to 5 relative activity over Rd3BB (SEQ ID NO: 13)) | ++ (++ = >5 to 10 relative activity over Rd3BB (SEQ ID NO: 13)) | ++ (++ = >5 to 10 relative activity over Rd3BB (SEQ ID NO: 13)) |
| 619 (protein, Synthetic Polypeptide sequence of Variant No. 619 of mature Human GLA) LDNGLARTPTMGWLHWERFMCNLDCQEEPDSCISEKLFMEMAERMVTEGWKDAGYEYLCIDDCWMAPQRDSEGRLQADPQRFPHGIRQLANHVHSKGLKLGIYADVGNKTCAGFPGSFGYYDIDAQTFADWGVDLLKFDGCYCDSLENLADGYKHMSLALNRTGRPIVYSCEWPLYMWPFQKPNYTEIRQYCNHWRNFADIDDSWASIKSILDWTSRNQERIVDVAGPGGWNDPDMLVIGNFGLSWDQQVTQMALWAIMAAPLFMSNDLRAISPQAKALLQDKDVIAINQDPLGKQGYQLRKGDNFEVWERPLSGDAWAVAIINRQEIGGPRSYTIPVASLGKGVACNPACFITQLLPVKRQLGFYNWTSRLKSHINPTGTVLLQLENTHQMSLKDLL | + (+ = 1.5 to 5 relative activity over Rd3BB (SEQ ID NO: 13)) | ++ (++ = >5 to 10 relative activity over Rd3BB (SEQ ID NO: 13)) | ++ (++ = >5 to 10 relative activity over Rd3BB (SEQ ID NO: 13)) |
| 623 (protein, Synthetic Polypeptide sequence of Variant No. 623 of mature Human GLA) LDNGLARTPTMGWLHWERFMCNLDCQEEPDSCISEKLFMEMAERMVNEGWKDAGYEYLCIDDCWMAPQRDSEGRLQADPQRFPHGIRQLANYVHSKGLKLGIYADVGNKTCAGFPGSFGYYDIDAQTFADWGVDLLKFDGCYCDSLENLADGYKHMSLALNRTGRPIVYSCEWPLYMWPFQKPNYTEIRQYCNHWRNFADIDDSWASIKSILDWTSRNQERIVDVAGPGGWNDPDMLVIGNFGLSWDQQVTQMALWAIMAAPLFMSNDLRAISPQSKALLQDKDVIAINQDPLGKQGYQLRKGDNFEVWERPLSGDAWAVAIINRQEIGGPRSYTIPVASLGKGVACNPACFITQLLPVKRQLGFYNWTSRLKSHINPTGTVLLQLENTMQTSLKDLL | + (+ = 1.5 to 5 relative activity over Rd3BB (SEQ ID NO: 13)) | +++ (+++ = >10 relative activity over Rd3BB (SEQ ID NO: 13)) | ++ (++ = >5 to 10 relative activity over Rd3BB (SEQ ID NO: 13)) |
